The record followed here is PMC2836565.

In data set [1] the target is T1, Vts1 (Saccharomyces cerevisiae, UniProt Q08831 1-523).
T1 sequence: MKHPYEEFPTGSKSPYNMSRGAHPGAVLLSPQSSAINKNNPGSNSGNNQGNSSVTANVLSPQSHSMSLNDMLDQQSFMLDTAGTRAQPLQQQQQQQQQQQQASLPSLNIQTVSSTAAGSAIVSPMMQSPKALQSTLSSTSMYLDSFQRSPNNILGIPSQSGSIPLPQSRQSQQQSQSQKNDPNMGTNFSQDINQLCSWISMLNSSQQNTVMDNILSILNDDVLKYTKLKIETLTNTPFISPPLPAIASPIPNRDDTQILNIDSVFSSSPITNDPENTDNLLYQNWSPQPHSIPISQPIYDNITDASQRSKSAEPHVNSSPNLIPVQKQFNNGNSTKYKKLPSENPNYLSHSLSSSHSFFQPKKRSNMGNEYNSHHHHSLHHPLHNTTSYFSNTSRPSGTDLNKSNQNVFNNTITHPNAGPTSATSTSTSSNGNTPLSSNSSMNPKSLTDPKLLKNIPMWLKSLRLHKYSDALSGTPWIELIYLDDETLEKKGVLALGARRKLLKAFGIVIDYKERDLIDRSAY
Description: competition.

The target in data set [2] is T1, Vts1. In words: EMSA.
A further data set concerns the target T2, Vts1-A498Q (Saccharomyces cerevisiae, UniProt Q08831 1-523, A498Q).
T2 sequence: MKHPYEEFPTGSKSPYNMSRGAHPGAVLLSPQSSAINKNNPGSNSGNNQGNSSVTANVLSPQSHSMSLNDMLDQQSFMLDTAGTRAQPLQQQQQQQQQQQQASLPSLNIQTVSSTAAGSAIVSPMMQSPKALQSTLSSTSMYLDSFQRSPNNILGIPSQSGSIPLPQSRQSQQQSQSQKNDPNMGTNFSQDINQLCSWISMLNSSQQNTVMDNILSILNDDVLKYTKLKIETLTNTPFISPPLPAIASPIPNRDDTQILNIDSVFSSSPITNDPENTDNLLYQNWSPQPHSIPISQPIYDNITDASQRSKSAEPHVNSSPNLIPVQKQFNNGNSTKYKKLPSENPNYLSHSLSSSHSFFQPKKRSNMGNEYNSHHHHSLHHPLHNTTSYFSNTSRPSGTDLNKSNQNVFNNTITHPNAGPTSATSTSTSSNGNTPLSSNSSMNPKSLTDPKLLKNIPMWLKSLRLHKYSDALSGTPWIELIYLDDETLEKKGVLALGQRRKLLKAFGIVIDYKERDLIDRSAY
Description: EMSA.

B1: dsDNA 50-bp (dsDNA)
DNA 1: GAAAACATTATTAATGGCGTCGAGCTAGGCACAAGGCGAACTGCTAACGG
DNA 2: CCGTTAGCAGTTCGCCTTGTGCCTAGCTCGACGCCATTAATAATGTTTTC
Take B1: the binding result with Vts1 [1] is “binds”. Regarding GCUCGAGGCUCUGGCAGCCUCGAGC (structured_RNA) [SRE-RNA], the results for the binding result with Vts1 [2] and with Vts1-A498Q were “binds” and “no binding”, respectively.
